These results are taken from patent US6586197B1, “Methods and materials for identifying novel pesticide agents” (priority 1999, dated 2003).

The target in series [1] is T1, purified 115 kDa APN from Manduca sexta (Manduca sexta, UniProt Q11001).
T1 sequence (Q11001 36-968 limits assumed): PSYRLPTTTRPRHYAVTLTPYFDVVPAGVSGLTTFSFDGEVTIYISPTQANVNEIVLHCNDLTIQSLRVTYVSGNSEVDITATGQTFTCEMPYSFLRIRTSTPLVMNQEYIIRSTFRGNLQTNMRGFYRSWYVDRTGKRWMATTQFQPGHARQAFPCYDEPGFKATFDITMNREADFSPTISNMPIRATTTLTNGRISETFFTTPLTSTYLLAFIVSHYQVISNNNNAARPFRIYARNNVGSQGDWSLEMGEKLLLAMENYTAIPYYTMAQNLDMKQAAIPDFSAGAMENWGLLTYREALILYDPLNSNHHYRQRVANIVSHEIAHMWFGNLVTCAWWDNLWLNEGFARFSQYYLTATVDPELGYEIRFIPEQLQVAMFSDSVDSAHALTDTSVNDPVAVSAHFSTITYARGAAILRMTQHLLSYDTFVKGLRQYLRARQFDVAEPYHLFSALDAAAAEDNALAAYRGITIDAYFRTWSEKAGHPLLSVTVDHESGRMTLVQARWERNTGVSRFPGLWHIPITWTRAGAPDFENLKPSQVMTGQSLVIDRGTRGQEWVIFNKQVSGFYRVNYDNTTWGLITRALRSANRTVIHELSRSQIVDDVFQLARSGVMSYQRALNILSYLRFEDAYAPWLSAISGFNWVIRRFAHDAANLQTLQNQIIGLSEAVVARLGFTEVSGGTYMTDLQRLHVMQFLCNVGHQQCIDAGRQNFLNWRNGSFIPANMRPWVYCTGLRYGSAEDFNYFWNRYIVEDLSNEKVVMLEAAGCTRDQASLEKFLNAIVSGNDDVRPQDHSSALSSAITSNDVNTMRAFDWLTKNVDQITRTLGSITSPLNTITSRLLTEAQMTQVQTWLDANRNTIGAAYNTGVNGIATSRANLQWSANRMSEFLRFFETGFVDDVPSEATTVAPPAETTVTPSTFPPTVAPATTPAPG
To be noted: Masson et al., 1995; cited from earlier work.

Series [2] addresses T2, M. sexta 120 kDa APN (Manduca sexta, UniProt Q11001).
T2 sequence (Q11001 36-968): T1 sequence (Q11001 36-968 limits assumed)
The note with it: previous studies (Knight 1994; Sangadala 1994; Masson 1995; Lu and Adang 1996); cited from earlier work.

Series [3] concerns expressed 120 kDa APN on Sf21 cells transfected with pHSP120. Put plainly: Immunofluorescence binding of rhodamine-labeled toxins to Sf21 cells (confocal microscopy), pHSP120. Further details: species or system Manduca sexta. The note with it: toxin 1 μg/ml, fixed Sf21 cells transfected with pHSP120. As to the method: Growth of B. thuringiensis strains, trypsin activation, and fast-performance liquid chromatography (Pharmacia) purification of Cry1Ac, […] and Cry3a toxins were done as previously described (Garczynski et al 1991; Lu and Adang 1996). […] The purified Cry1Ac and Cry1Ba (200 μg) were labeled with 5-(and-6)-carboxytetramethylrhodamine, succinimidyl ester [5(6)-TAMRA SE] (Molecular Probe, Eugene, Oreg.) according to the manufacturer's instructions. Briefly, 5(6)-TAMRA (5 mg) were dissolved in 0.5 ml of Dimethylformamide (DMF) immediately before starting the labeling. The dye solution (100 μl) was slowly added into 500 μl of toxin sample (200 μg toxins) and incubated for 1 h at room temperature. The reaction was stopped by adding 0.1 ml of 1.5 M hydroxylamine, pH 8.5, and then the mixture was incubated. for 1h at room temperature. […]
Sf21 cells were plated onto a microscope cover glass (18×18 mm) in a tissue culture dish (60×15 mm diameter), and then transfected and heat-shocked as described above. […] Immunostained cells were observed using fluorescence microscopy or fluorescence confocal microscopy (Center for Advanced Ultrastructural Research, University of Georgia).
Since the expressed 120 kDa APN located on Sf21 cell surfaces, we examined the binding of Cry1toxins to Sf21 cells using double immunofluorescence staining. […] And then cells were viewed by fluorescence confocal microscopy.

Series [4] has as its system Sf21 cells transfected with pHSP120. Nature of the series: Toxicity assay (Trypan blue cell mortality), Sf21 cells expressing M. sexta 120 kDa APN. The note with it: 2 h. As to the method: (§1) The pHSP120 plasmid DNA was isolated and purified using a Plasmid Maxi Kit (Qiagen, Valencia, Calif.). Sf21 (IPLB-Sf21) cells (Vaughn et al., 1977) were plated at 1.8×10^6 cells per plate (60 mm diameter) prior to transfection with pHSP120 DNA. Plasmid DNA (10 μg) was mixed with 5 μl of Lipofectin reagent (Gibco BRL, Gaithersburg, Md.) and combined with 1 ml of TC-100 medium (Gibco BRL, Gaithersburg, Md.). The mixture was incubated at room temperature for 15 min. Following 3 washes with TC-100 medium, the DNA/Lipofectin mixture was added to the cells, and then the cells were incubated at room temperature for 4 h on a rocker. After removal of DNA/Lipofectin mixture, TC-100 with 10% fetal bovine serum (4 ml) was added to the plates and the cells were incubated at 27° C. overnight. Expression of 120 kDa APN in Sf21 cells was induced by heat-shocking cells at 42° C. for 30 min the following day. After incubation at 27° C. for 24 h, the cells were collected and analyzed using immunofluorescence localization and Western blotting.
Sf21 cells (1.8×10^6) were grown and heat-shocked as described above. […] The freshly prepared toxin solution (1 ml) was added to each Sf21 cell plate and incubated at room temperature for 2 h. Cell mortality was determined by trypan blue staining as described by Thomas and Ellar (1983).
(§2) Thetoxicity of three Cry1toxins to Sf21 cells expressing M sexta 120 APN was determined. A single concentration of Cry1toxins (40 μg/ml) was used and the cell mortality was measured by Trypan blue staining (Thomas and Ellar 1983).

Series [5] relates to Sf21 cells transfected with pHSP-HR5. Put plainly: Toxicity assay (Trypan blue cell mortality), control-vector Sf21 cells. The note with it: 2 h. As to the method: as §1, with “Expression of 120 kDa APN in Sf21 cells was induced by heat-shocking cells at 42° C. for 30 min the following day.” left out
Sf21 cells (1.8×10^6) were grown and heat-shocked as described above. […] Cell mortality was determined by trypan blue staining as described by Thomas and Ellar (1983).
as §2

The test system of series [6] is expressed 120 kDa APN from Sf21 cells. Nature of the series: Toxin affinity chromatography and anti-APN immunoblot, Sf21 cells. The class given is binding, Manduca sexta. The note with it: CHAPS-solubilized Sf21 cells, anti-APN immunoblot (FIG. 13). As to the method:
Affinity purification method of M. sexta 120 kDa APN from Sf21 cells or M. sexta midgut BBMV was described in Luo et al (1996). Briefly, Cry1Ac, Cry1Ba and Cry3a toxins (200 μg) were coupled to 400 μl of cyanogen bromide-activated Sepharose 4B in 20 mM Na2CO3, pH 9.6. M sexta BBMV (1 ml, 3.4 mg/ml proteins) or Sf21 cells (10^7 cells) were solubilized with 2% 3-[(3-cholamidopropyl) dimethylammoniol]-1-propane-sulphonate (CHAPS) in buffer A (50 mM Na2CO3, pH 9.6, 200 mM NaCl, 5 mM EGTA, 0.1% CHAPS). Insoluble material was removed by centrifugation at 27,000×g for 30 min at 4° C. CHAPS-solubilized BBMV (1 ml) or Sf21 cells (2 ml) were then added to the toxin-coupled Sepharose beads equilibrated with Buffer A. The mixture was incubated at 4° C. overnight. After washing with 100 ml of Buffer A, the binding protein-toxin complex was dissociated from the beads by heating in SDS-PAGE sample buffer at 100° C. for 5 min. The samples were separated by 8% SDS-PAGE, and then electrophoretically transferred to nitrocellulose membrane (Millipore Corp., Bedford, Mass.) in transfer buffer (Towbin et al., 1979) at 4° C. overnight. The membrane was blocked with 5% non-fat dry milk in PBST at room temperature for 1 h, and then probed with anti-APN antibody (0.5 μg/ml) in PBST containing 0.1% non-fat dry milk for 2 h. […]
Background: A western blot detects proteins with antibodies after separation by electrophoresis.

Series [7] has as its system enzymatic activity of Sf21 cells transfected with pHSP-HR5. Nature of the series: Aminopeptidase N activity assay (L-leucine-p-nitroanilide), homogenate of pHSP-HR5-transfected Sf21 cells. It is filed as biochemical, Spodoptera frugiperda. To be noted: homogenate 50 μg of proteins, pHSP-HR5-transfected Sf21 cells (FIG. 9, column D). As to the method:
(§3) Sf21 cells transfected with pHSP120 or pHSP-HR5 were collected and washed two times with PBS. The cells were suspended in 2 ml PBS and then homogenized with Potter-Helvehjem homogenizer. The cell homogenate was centrifuged at 27,000×g for 15 min at 4° C. The pellet was re-suspended in 2 ml of 10 mM Tris-HCl, 150 mM NaCl, pH 7.4. APN activity was assayed with L-leucine-p-nitroanilide as substrate as described previously (4). Briefly, the APN substrate (50 μl 6.8 mg/ml in methanol) was mixed with 1.4 ml of substrate buffer (10 mM Tris-HCl, 150 mM NaCl pH 7.4), and then the homogenate (50 μg of proteins) was added. The sample solution was incubated at 37° C. for 2 h. The level of APN activity was then determined by spectrophotometric measurement of free p-nitroanilide at […].
(§4) Sf21 cells transfected with pHSP120 or pHSP-HR5 were collected and homogenized. The homogenate (50 μg of proteins) was tested for APN activity. A high level of APN activity was present in the cells transfected pHSP120 compared with that in the cells transfected with pHSP-HR5 (FIG. 9, columns A and C).

In series [8] the test system is expressed M sexta APN1a. Nature of the series: Aminopeptidase N activity assay (L-leucine-p-nitroanilide), homogenate of pHSP120-transfected Sf21 cells. The class given is biochemical, Manduca sexta. To be noted: homogenate 50 μg of proteins, pHSP120-transfected Sf21 cells (FIG. 9, column B). As to the method: as §3, §4

“Cry1Ab: Bacillus thuringiensis Cry1 δ-endotoxin (literature)”: in series [1], the “Binding to purified 115 kDa APN” value is on record as “bind”. For the same compound, the “Specific binding to M. sexta 120 kDa APN” value in series [2] is on record as “bound specifically”.

Turning to “Cry1Ac: trypsin-activated, purified B. thuringiensis Cry1Ac toxin”, in series [3], the “Binding of rhodamine-labeled toxin (immunofluorescence)” value was “does not bind”. Further, the “Mortality (%) (±SE), Cells transfected with pHSP 120” value in series [4] (40 μg/ml toxin in insect PBS, Trypan blue (0.1%) staining, means of three assays (±standard error)) is given as 20.0 (±0.4) %. In series [4] (40 μg/ml toxin), the “Difference in mortality between pHSP120- and pHSP-HR5-transfected Sf21 cells” value is given as “no significant difference”. The Toxicity in words result is reported as “low toxicity” in series [4] (40 μg/ml toxin, Sf21 cells transfected with pHSP120) and “low toxicity” in series [5] (40 μg/ml toxin, Sf21 cells transfected with pHSP-HR5). Moreover, the “Mortality (%) (±SE), Cells transfected with pHSP-HR5” value in series [5] (40 μg/ml toxin in insect PBS, Trypan blue (0.1%) staining, means of three assays (±standard error), control vector) was 20.6 (±0.5) %. In series [1], the “Binding to purified 115 kDa APN” value is “bind”. Moreover, in series [2], the “Specific binding to M. sexta 120 kDa APN” value is “bound specifically”. Moreover, the “Binding of APN to toxin affinity column” value in series [6] is recorded as “did not bind”.

`CC(C)C[C@@H](N)[C@H](O)C(=O)N[C@H](C(=O)N[C@H](C(=O)N[C@@H](CC(=O)O)C(=O)O)C(C)C)C(C)C` [Amastatin]: the “Effect on APN activity” value in series [7] is reported as “did not show significantly impact”; in series [8], “greatly reduced”.

With “Cry1Aa: Bacillus thuringiensis Cry1 δ-endotoxin (literature)”, the “Binding to purified 115 kDa APN” value in series [1] is on record as “bind”. Further, in series [2], the “Specific binding to M. sexta 120 kDa APN” value is given as “bound specifically”.
